Measurements: patent US5807824A, “C5A receptor antagonists having substantially no agonist activity” (priority 1995, dated 1998)

What was measured:
[1] = system: C5a-induced enhancement in vascular permeability; assay: Rabbit dermal model of inflammation ([125I]-BSA exudation at intradermal sites); assay type: in vivo, New Zealand White rabbits
Procedure: All experiments were performed on male New Zealand White rabbits weighing 2.5-3.0 kg. The backs of the rabbits were shaved and 40-50 skin sites were designated with markers of different colors. Different stimuli (i.e., C5a, C5a analogue, C5a+C5a analogue, vehicle control, etc.) were injected intradermally at 0.1 ml/site using a sterile, disposable, 26 gauge, 0.5 in. needle and 1.0 cc tuberculin syringe. I.D. injections were administered in replicates of six, roughly 45 minutes before euthanization. C5a alone was injected at a dose of 50 ng/site, and the C5a receptor antagonists were co-injected at various concentrations with the same dose of C5a. At 20 minutes prior to euthanization, 18-36 uCi of [125I]-labeled bovine serum albumin in 1.0 ml physiological saline were introduced into the systemic circulation via the marginal auricular vein. At 45 minutes, the rabbit was euthanized with an I.V. overdose of sodium pentobarbital. […]
After death, the dorsal skin was excised and pinned to a wooden dissecting board. […] This procedure reduced variation among skin sites and decreased background radioactivity. […] Injection sites were then analyzed for their radioactive content using a Gamma Counter (Genesys).

C5a receptor [2] = target: T1, C5a receptor (Homo sapiens, UniProt P21730); assay: Receptor binding assay: displacement of [125I]Bolton-Hunter labelled C5a from PMNL membranes
T1 construct: Neutrophils were purified from human peripheral blood; endogenous in cells; host or cells: neutrophils from human peripheral blood
T1 sequence (P21730 1-350): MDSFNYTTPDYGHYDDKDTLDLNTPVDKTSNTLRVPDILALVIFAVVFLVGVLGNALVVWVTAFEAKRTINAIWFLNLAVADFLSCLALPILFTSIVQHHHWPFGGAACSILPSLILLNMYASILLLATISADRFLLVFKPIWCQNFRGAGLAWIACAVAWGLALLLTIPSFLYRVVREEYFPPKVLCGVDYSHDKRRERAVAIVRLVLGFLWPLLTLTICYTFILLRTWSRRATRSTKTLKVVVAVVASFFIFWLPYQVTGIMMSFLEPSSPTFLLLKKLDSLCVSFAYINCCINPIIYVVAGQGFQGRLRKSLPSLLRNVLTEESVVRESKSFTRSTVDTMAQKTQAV
Procedure: C5a and C5a receptor antagonists were tested for their affinity for the C5a receptor. […] PMNLs were resuspended in Hanks balanced salt solution, without Ca^++ and Mg^++ and which contained 10 mM HEPES at pH 7.3, 2.5 mM MgCl2, 100 units/ml DNAse I, 0.1 mM PMSF, 10 μg/ml aprotonin and 10 μg/ml leupeptin. They were then equilibrated at 400 psi for 20 min at 4° C. in a nitrogen cavitation bomb. After evacuation into 3 volumes 0.5M KHCO3 containing 25 mM EDTA and the protease inhibitors listed above, the gelatinous material was removed with forceps and the mixture was centrifuged at 400×g for 10 min at 4° C. The resulting supernatant was centrifuged at 50,000×g for 60 min at 4° C. The pellets from the aliquots representing 200×10^6 cells were stored at -70° C. For binding studies, these membranes were resuspended at an equivalent of 20×10^6 cells/ml in 50 mM HEPES at pH 7.3, containing 1 mM CaCl2, 5 mM MgCl2, 0.1 mM PMSF, 0.1% bacitracin and 0.5% BSA.
Nonspecific binding was determined in the presence of 10 nM unlabelled C5a. The binding reaction was initiated by the addition of the PMNL membranes and was continued for 120 min at 4° C. Bound and free radioactivity were separated by vacuum filtration through GF/C glass fiber filters (Whatman), pretreated for 90 min with 0.05% PEI (polyethyleneimine) using a Cell Harvester (Brandel, Gaithersburg, Md.). Filters were washed with 3×5 ml of ice-cold 5 mM Tris buffer at pH 7.4 and counted in a multiwell Gamma counter (Genesys). Data were analyzed using the non-linear regression analysis program, RS/1 (Bolt, Beranek and Newman, Boston) and expressed as IC50 values. The results are set forth below in Table 4 as Ki values using the Cheng-Presoff equation. See Braunwalder et al., supra.

C5a-induced neutropenia = C5a-induced neutropenia in the rabbit; assay type: in vivo, New Zealand White rabbits; details: i.v. bolus; for Inhibition of C5a-induced neutropenia versus vehicle-treated rabbits: 100 ng C5a
Procedure: All experiments were performed on male New Zealand White rabbits weighing 2.5-3.0 kg. Rabbits were anesthetized with 10 mg/kg xylazine and 50 mg/kg ketamine administered in combination intramuscularly. A 25 gauge butterfly catheter was inserted in the lateral ear vein to use for infusions. Each blood sample (0.2 ml) was collected from the central ear artery into a plastic syringe fitted with a 25 gauge, 5/8 inch needle and charged with 7.5% EDTA as an anticoagulant. Blood was immediately expressed into a microcentrifuge tubes containing 10 microliters of 7.5% EDTA. An initial arterial blood sample (#1) was obtained and immediately thereafter vehicle or the C5a analogue of Example 8 was infused intravenously (bolus injection). Twenty seconds later, a second blood sample (#2) was obtained and twenty seconds thereafter 100 ng of C5a in 0.2 ml were infused intravenously (bolus injection). Twenty seconds later, a third blood (#3) sample was taken. Thirty minutes later, a second round of blood sample (#4)----20 seconds--C5a infusion--20 seconds--blood sample (#5) was performed. Blood samples were evaluated by automated hematologic analysis (Technicon H*1) using software specific for rabbit blood. Reductions in neutrophil counts (number per milliliter) induced by C5a(C5a-induced neutropenia, determined by comparing blood sample #3 to #2 and #5 to #4) were compared between vehicle-treated and C5a analogue-treated animals.

C5a receptor [3] = target: T1, C5a receptor; assay: C5a induced Ca++ rise assay in fura-2 loaded neutrophils; assay type: cell-based
From the text: The antagonism of the instant C5a analogues may be quantified as an IC50 in the calcium rise assay disclosed in Seligmann et al., Agents and Actions 21:375-378 (1987), described in detail in Example 7.
See Hugli et al., CRC Crit. Rev. Immunol. 1:321-326 (1981) and PCT WO 92/10205. A quantitative measure of this property may also be obtained using the calcium rise assay disclosed in Seligmann et al., supra, also described in Example 7. EC50 is a measure of agonistic activity.
Recombinant human C5a was dissolved in Hanks buffer containing 0.01% Tween-20, and all stock dilutions of C5a were made in this buffer. The acetoxymethyl ester of fura-2 (fura 2AM, Molecular Probes) was dissolved in DMSO. Neutrophils were purified from human peripheral blood by sedimentation in 6% hetastarch (HESPAN, DuPont, Waukegan, Ill., followed by counter flow elutriation as described in Chapman-Kirkland et al., J. Immunol. Meth. 142:95-104 (1991). Purified cells (2×10^6/ ml) were mixed with 0.2 uM fura- 2AM and incubated for 30 min at 37° C. in HEPES buffered Hanks solution without calcium or magnesium. Fifteen minutes before the assay, the cell suspension was transferred to a curvette containing a stir bar and calcium was added to 1 mM. The cell suspension was incubated with stirring at 37° C. Assays were terminated within 5 h of cell purification and a standard control response was obtained periodically to insure that the cell responses were not changing over the time of the experiment. The amount of fluorescence was determined using an SLM 8000 spectrofluorometer (SLM-Aminco Instruments, Urbana, Ill.). Curvettes were placed in the fluorometer and after obtaining a baseline for 10 sec, the C5a receptor antagonists to be tested for antagonistic properties were added and any change in fluoresence excitation ratio of 340 nm/380 nm (emission of 510 nm) was measured. Forty seconds after analogue addition, a challenge dose of C5a was added to a final concentration of 100 pM and the resulting change in excitation ratio was measured.
IC50 values were used as a measure of antagonist potency. These values are defined as the concentration of C5a analogue needed to reduce the calcium rise response of the 100 pM C5a challenge dose by 50%. EC50 values were used as a measure of agonist potency. […]

[4] = Table 6, Example 10 comparison with decapeptide

B1: C5a (1-71, T1M, C27S, Q71C) (protein, UniProt P01031 678-751, looked up, variant T1M C27S Q71C)
C5a anaphylatoxin: MLQKKIEEIAAKYKHSVVKKCCYDGASVNNDETCEQRAARISLGPRCIKAFTECCVVASQLRANISHKDMCLGR
modifications: C5a anaphylatoxin
- Pro-inflammatory reaction (agonist properties in vivo) ([1]; analogue at 175 ng/site intradermally): did not cause a pro-inflammatory reaction
- ID50 (dose causing 50% reduction in radioactivity produced by C5a) ([1]; co-injected intradermally with 50 ng C5a/site): 70 ng/site
- Ki (C5a receptor [2]; Table 4, [125I]BH-C5a 4.0 pM, PMNL membranes, Cheng-Prusoff): 0.2 nM
- Ki (C5a receptor [2]; [4]): 0.04 nM
- Effect on baseline neutrophil counts (agonistic, C5a-like properties) (C5a-induced neutropenia; before C5a challenge): did not alter baseline neutrophil counts from normal
- Inhibition of C5a-induced neutropenia versus vehicle-treated rabbits (C5a-induced neutropenia; 30-minute C5a challenge interval): 41%
- Inhibition of C5a-induced neutropenia versus vehicle-treated rabbits (C5a-induced neutropenia; 40-second C5a challenge interval): 67%
- IC50 (C5a receptor [3]; [4]): 51 nM
- Concentration up to which tested with agonist activity not detected (C5a receptor [3]; calcium rise assay): > 3 µM
